Experimental data from the Human Domainome abundance scans (Beltran et al. 2025).
± gives the uncertainty stated by the source.

Assay: abundance fitness (aPCA) (normalised: wild type 0, dead -1); higher = more abundant; growth selection in yeast, the domain comes from the species named
Conditions: Homo sapiens
In the case of “DnaJ homolog subfamily B member 1 A49T, P25685”, the abundance fitness is reported as 0.094 ± 0.099. Substance “DnaJ homolog subfamily B member 1 G14T, P25685” has an abundance fitness of -0.072 ± 0.092. “DnaJ homolog subfamily B member 1 T8Q, P25685” gave an abundance fitness of -0.165 ± 0.12. For “DnaJ homolog subfamily B member 1 K35I, P25685”, the abundance fitness was -0.504 ± 0.086. In the case of “DnaJ homolog subfamily B member 1 L29Y, P25685”, the abundance fitness is reported as -0.008 ± 0.089. “DnaJ homolog subfamily B member 1 G10L, P25685” showed an abundance fitness of -0.223 ± 0.058. “DnaJ homolog subfamily B member 1 G14Y, P25685” gave an abundance fitness of -0.378 ± 0.32. Substance “DnaJ homolog subfamily B member 1 S56I, P25685” has an abundance fitness of -0.174 ± 0.36. Substance “DnaJ homolog subfamily B member 1 A15W, P25685” has an abundance fitness of -1.17 ± 0.085. “DnaJ homolog subfamily B member 1 K60N, P25685” showed an abundance fitness of -0.311 ± 0.098. Work on “DnaJ homolog subfamily B member 1 K37M, P25685” yielded an abundance fitness of -0.41 ± 0.18. Work on “DnaJ homolog subfamily B member 1 I20Q, P25685” yielded an abundance fitness of -0.759 ± 0.13. Substance “DnaJ homolog subfamily B member 1 F45V, P25685” has an abundance fitness of -0.306 ± 0.061. “DnaJ homolog subfamily B member 1 D65G, P25685” gave an abundance fitness of -0.197 ± 0.11. Work on “DnaJ homolog subfamily B member 1 E42L, P25685” yielded an abundance fitness of 0.086 ± 0.055. For “DnaJ homolog subfamily B member 1 L29A, P25685”, the abundance fitness was -0.167 ± 0.085. In the case of “DnaJ homolog subfamily B member 1 A49L, P25685”, the abundance fitness is reported as -0.75 ± 0.086. For “DnaJ homolog subfamily B member 1 A41Y, P25685”, the abundance fitness was -0.631 ± 0.43. For “DnaJ homolog subfamily B member 1 Y5H, P25685”, the abundance fitness was 0.024 ± 0.068. For “DnaJ homolog subfamily B member 1 K44F, P25685”, the abundance fitness was -0.298 ± 0.12. For “DnaJ homolog subfamily B member 1 Q7A, P25685”, the abundance fitness was -0.386 ± 0.12. “DnaJ homolog subfamily B member 1 P39E, P25685” gave an abundance fitness of 0.064 ± 0.097. Work on “DnaJ homolog subfamily B member 1 K44C, P25685” yielded an abundance fitness of -0.208 ± 0.14. For “DnaJ homolog subfamily B member 1 G10T, P25685”, the abundance fitness was -0.564 ± 0.16. Substance “DnaJ homolog subfamily B member 1 P58Q, P25685” has an abundance fitness of -0.18 ± 0.097. Substance “DnaJ homolog subfamily B member 1 E18D, P25685” has an abundance fitness of 0.034 ± 0.16. “DnaJ homolog subfamily B member 1 E19V, P25685” gave an abundance fitness of -0.491 ± 0.093. “DnaJ homolog subfamily B member 1 I48D, P25685” showed an abundance fitness of -0.667 ± 0.12. For “DnaJ homolog subfamily B member 1 Q7K, P25685”, the abundance fitness was -0.014 ± 0.12. In the case of “DnaJ homolog subfamily B member 1 D57S, P25685”, the abundance fitness is reported as -0.097 ± 0.076. “DnaJ homolog subfamily B member 1 A51T, P25685” gave an abundance fitness of -0.815 ± 0.071. In the case of “DnaJ homolog subfamily B member 1 Q7E, P25685”, the abundance fitness is reported as -0.547 ± 0.13. “DnaJ homolog subfamily B member 1 E42G, P25685” gave an abundance fitness of -0.153 ± 0.097. Work on “DnaJ homolog subfamily B member 1 A51K, P25685” yielded an abundance fitness of -0.885 ± 0.15. “DnaJ homolog subfamily B member 1 N36R, P25685” showed an abundance fitness of -0.14 ± 0.093. “DnaJ homolog subfamily B member 1 A12Q, P25685” gave an abundance fitness of -0.094 ± 0.094. With “DnaJ homolog subfamily B member 1 A23S, P25685” the abundance fitness was -0.159 ± 0.056. “DnaJ homolog subfamily B member 1 K35N, P25685” showed an abundance fitness of -0.742 ± 0.13. Work on “DnaJ homolog subfamily B member 1 R61C, P25685” yielded an abundance fitness of -0.325 ± 0.15. Substance “DnaJ homolog subfamily B member 1 L55S, P25685” has an abundance fitness of -0.524 ± 0.086. Work on “DnaJ homolog subfamily B member 1 D57T, P25685” yielded an abundance fitness of -0.072 ± 0.089. “DnaJ homolog subfamily B member 1 E47R, P25685” gave an abundance fitness of -0.071 ± 0.068. With “DnaJ homolog subfamily B member 1 Y6N, P25685” the abundance fitness was -0.523 ± 0.13.
